# Test: yeast display, Sf9 membrane polyspecificity reagent, FACS + sequencing; frameworks hold sequencing errors
# Procedure, shortened: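 Synthetic nanobody libraries on Saccharomyces cerevisiae BJ5465 were galactose-induced for 36–48 hours, stained 1 hour at 4 °C with 10% biotinylated, detergent-solubilized Sf9 membrane reagent and enriched on streptavidin microbeads. FACS then separated cells into low and high (top ~1%) gates by anti-HA (expression) and streptavidin (reagent binding) fluorescence. Genes were colony-PCR amplified, MiSeq 2 × 250 sequenced and CDR-length filtered. A clone's polyreactivity label is that of its gate of origin.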
row,Sequence,polyreactivity (PSR sort gate)
1,QVQLVESAGGLVQAGRSHRLSFAASGSIFYHNAMGWYRQAPGKERELVAAISGRGGSTYYADSVKGRFTISRDNAKNTVYLQMNSLKPEDTAVYYCAADARYQNGGLYYWGQGTQVTVSS,high polyreactivity
2,QVQLVESAGGLVQAGRSLRLSCAASGRNFLGNDMGWYRQAPGKERELVAAISYGDGSTYYADSVKGRFTISRDNAKNTVYLQMNSLKPEDTAVYYCAAERYTIPPIYDYWGQGTQVTVSS,low polyreactivity
3,QVQLVESAGGLVQAGVSLRISCAASGSTIRHYAMGWYRQAPRKERELVAAISSGARTYYADSEKGRFTISRDNAKNTVYLQMNSLKPEDTAVYYRAARYNGYANPYYYWGQGTQVTVSS,high polyreactivity
4,QVQLVESAGGLVQAGVSLRLSCAASGFTSSRNAMGWYRQAPGKERELVATISSGGDTYYADSVKGRFTISRDNAKNTVYLQMNTLKPEDTAVYYCNKDPLYAWGYDYWGQGTQVTVSS,low polyreactivity
5,QVQLVESAGGLVQARGSLRLSCAASGINFDWYTMGWYRKAPGKERELVAAISWRGGRTYYADSVKGRFTISRDNAKNTVYLQMNSLKPEDTAVYYCAAEAPVQPFYVFNTGIYELDYWGQGTQVTVSS,low polyreactivity
6,QVQLVESAGGLVQEGGSLRIRCAASGRIYQLYTMGGYRQAPGKERELDAAITTGTSTSYAYSVKGRFTISRDNAKNTVYLLMYSLKPVDTAFYFCNKGSVSYYSVFVPYESDYGGQGTQVTVSS,low polyreactivity
7,QVQLVESAGGLVQEGGSLRLICAASGSIFEPYAMGWYRQAPGKERELVAAIRWSGGSTYYADSVKGRFTISRDNAKNTVYLQMNRLIPEDTAVYYCAKYFPAGYYYWGQGTQVTVSS,low polyreactivity
8,QVQLVESAGRLVQEGGSLRLRSAASGSIFKYNTMGWYRQAAGKERELVAGISYGGRTYYADSVKGRFTISRDNAKNTVYLHMNSLKPEYTAVYYCAARWSYFKTTHRNNYWGQGTQVTVSS,high polyreactivity
9,QVQLVESARGLVQAGGSLRLSCAASGYTIRANAMGWYRQAPGKEREFVAAISRSGGSTYYADSVKGRFTISRDNAKNTVYLQMNCLKPEDTAVYYCNNLYPYYATHTTRGLDYWGQGTQVTVSS,high polyreactivity
10,QVQLVESAVGLVQAGGSHRLSCAASAGTFYFYAMGWYRQAPGKERELVATITRGGSTYYADSVKGRFTISRDNAKNTVYLQMNSLNPEDTAVYYCAARQYSRRRSPVSTWYYYWGQGTQVTVSS,high polyreactivity
11,QVQLVESCGALVQAGGSLRLICAGSGSIFHVNAMGWSRPAHGKESELVAGISDGGSTYYADSVKGRFTISRYYAKNTVYFQMNSLKPEDSGVYYWATDYPSRWHVHRGFQGKYDYWGQGTQVTLSS,low polyreactivity
12,QVQLVESCGCLVQAGGSLRLSCAASGRTFFHYDMGWYRQAPGKDRELEAGISSGGRTKYADSVKGRFTISRDNAKNTVYLQMNSLNPEDTAAYYCAASYIVWLTRGAPRKRFDYWGQGSQVTVSS,high polyreactivity
13,QVQLVESCGGIVQAGGSLRLRCAASGFIFEYYAMVWYRQAPGKERELVAAINWGGGRTRYADSVKGRFTISPYNAKNTVYLQMNSLKPEDTAVYYCAARYGYRYDSWGQGTQVTVSS,high polyreactivity
14,QVQLVESCGGLFQAGGSLRLSCAPSGRTSWVYAMGWYRQAPAKERELVASIRKRTVVYADSVKGRFTISRENAKNTVYLQMNSLKPEETAVYYCNTDYSSTSQWRAANYWGQGTQVTVSS,high polyreactivity
15,QVQLVESCGGLIQAGGSLRLSCAASGSTFPYYAMGWYRQAPGKEREFVAAIRFSGSSTYYADSVKGRFTISRDNAMNTVFLQMNRLKPEDTAVYYCATDYWLPSYSYDYWGQGTQVTVSS,low polyreactivity
16,QVQLVESCGGLVQAGGSHRLSCDASGRIFTGYAMGWYRQAPGKERELVAAISWGGGRTYYADSVKGRFTISRDNAKNTVYLQMNSLKPEDTADYYCNRAAGGRSTPYYYWGQGTQVTVSS,high polyreactivity

row,Sequence,polyreactivity (PSR sort gate)
1,QVQLVESCGGLVQAGGSLRLSCAASGFTFTWNAMGWYRQAPGKERELVAGITRGGSTNYADSVKGRFTISRDNAKNTVYLQMNSLKPEDTAVYYCNVSFYFHHAGYDYWGQGTQVTVSS,low polyreactivity
2,QVQLVESCGGLVQAGGSLRLSCAASGFTFYLYAMGWYRQAPGQERELVAAISSRGGTTYYADSVKGRFTISRDNAKNTVYLQMNSLKPEDTAVYYCNVARFYHIYDYWGQGTQVTVSS,high polyreactivity
3,QVQLVESCGGLVQAGGSLRLSCAASGITFGRNTMGWYRQAPGKERELVAAIDSGGNTYADSVKGRFTISRDNAKNTVYLQMNSLKPEDTAVYYCAVDGGEFSSYGYWGQGTQVTVSS,low polyreactivity
4,QVQLVESCGGLVQAGGSLRLSCAASGLTFIFNAMGWYRQAPGKEREFVADISSGVNTNYADSVKGRFTISRDNAKNTVYLQMNSLKPEDTAVYYCNKDVNAYGGASIRGYTMYYWGQGTQVTVSS,low polyreactivity
5,QVQLVESCGGLVQAGGSLRLSCAASGRIFSDYAMGWYRQAPGKERELVATITSGDSTNYADSVKGRFTISRDNAKNTVYLQMNSLKPEDTAVYYCNADRFADYDYWGQGTQVTVSS,low polyreactivity
6,QVQLVESCGGLVQAGGSLRLSCAASGRTFFGYAMGGYRQAPGKERELVAAINWGGASTYYADSVKGRFTISRDNAKNTVYLQMNSLKPEETAVYYCAADSVPSRPTYGRYDYWGQGTQVTVSS,low polyreactivity
7,QVQLVESCGGLVQAGGSLRLSCAASGRTFYFYAMGWYRQAPGKERELVAAISSTGGSTYYADSVKGRFTISRDNAKNTVYIQMNSLKPEDTAVYYCAARKSPRGRGEFYWGQGTQVTVSS,high polyreactivity
8,QVQLVESCGGLVQAGGSLRLSCAASGSIIFPYALGWYRQAPGKERELVAAISWSGGRTYYADSVKGRFTISRDNAKNTVYLQMNSLKPEDTAVYYCAADGYPYFYGDFDYWGQGTQVNVSS,high polyreactivity
9,QVQLVESCGGLVQAGGSLRLSCAASGSTFVYYAMGWYRQAPGKERELVAAISSGGSTYYADSVKGRFTISRDNAKNTVFLQMNSLKPEDTAVYDCAAKFGWGYTTYYYCGQGTQVTVSS,high polyreactivity
10,QVQLVESCGGLVQAGGSLRLSCAPSGSIFVCYAMGWYRQAPWKEREFVAAITSGRGTYYADSVKGRFTRSRDNAQITVYLQMNSLKPEDTEVYYCNTVWRTRSFRAPAVAYGYWGQGTQVTVSS,high polyreactivity
11,QVQLVESCGGLVQAGGSLRLSCDASVSIFYRNAMGWYRQAPGKERELVAAIRSGGSTNYADSVKGRFTISRDNAKNTVYLQMNSLKPEDTAVYYCAAGYFWRQYKMGYWGQGTQVTVSS,high polyreactivity
12,QVQLVESCGGLVQAGGSLRLSSAASGRIFYAYVMGWYRQAPGKERELVADITSSGSTNYADTVKGRFTISRDNAKKTVYLQLISLKQEDTAVFYCAKVPYGYQVRRNFGYWGQGTQVTVSS,low polyreactivity
13,QVQLVESDGGLDQAGRSLRLSFAASGTIFDPYSMGWYRQEPGKERELVAAISWSDSSTYYADSVKGRFTISRDNAKNTVYLQKNSLKPEDTAVYYCASDYDLYFYLYEYWGQGTQVTVSS,high polyreactivity
14,QVQLVESGAALVQAGGSLRLSCAASGRTFWFNAMGWYRQPPGKERELVASISLSVGSTYYADSVKGRFTISRDNAKNTVYLQMNSLKAEDTAVYNCAADQTVHISSYDYWGQGTQVTVSS,low polyreactivity
15,QVQLVESGACLVQAGGSLRLSCAASGFIFPRNAMGWYRQAPGKERELVAAITKSGGSTYYADSVKGRFTISRDNAKNTVYLQMNSLKPEDTAVYYCAATDSATELYYRMDYWGQGTQVTVSS,high polyreactivity
